Test results taken from PMC2464603, “Roles of Arabidopsis WRKY3 and WRKY4 Transcription Factors in Plant Responses to Pathogens”.
Where a chain is given by its changes, count along the chain named.

Legend:
[1] = target: WRKY4 (Arabidopsis, UniProt Q9XI90 1-514); assay: EMSA; not stated; DNA-binding assays as previously described (ref 15); settings: protein: recombinant
[2] = target: WRKY3 (Arabidopsis, UniProt Q9ZQ70 1-513); assay: as above; settings: protein: recombinant
Chain of WRKY3 (Q9ZQ70 whole entry): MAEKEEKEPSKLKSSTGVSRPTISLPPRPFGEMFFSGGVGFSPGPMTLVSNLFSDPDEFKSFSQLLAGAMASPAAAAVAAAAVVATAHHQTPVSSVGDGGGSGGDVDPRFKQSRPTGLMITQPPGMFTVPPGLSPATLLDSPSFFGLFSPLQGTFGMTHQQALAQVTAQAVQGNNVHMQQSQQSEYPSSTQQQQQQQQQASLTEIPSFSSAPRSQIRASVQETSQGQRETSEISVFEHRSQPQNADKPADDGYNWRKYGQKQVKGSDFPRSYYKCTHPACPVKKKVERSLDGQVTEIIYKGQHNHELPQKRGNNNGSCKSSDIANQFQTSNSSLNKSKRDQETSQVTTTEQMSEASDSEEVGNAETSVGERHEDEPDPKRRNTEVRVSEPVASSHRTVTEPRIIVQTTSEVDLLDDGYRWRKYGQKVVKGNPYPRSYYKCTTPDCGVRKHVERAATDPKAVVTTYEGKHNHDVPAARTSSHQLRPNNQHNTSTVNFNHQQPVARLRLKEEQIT

Chain of WRKY4 (Q9XI90 whole entry): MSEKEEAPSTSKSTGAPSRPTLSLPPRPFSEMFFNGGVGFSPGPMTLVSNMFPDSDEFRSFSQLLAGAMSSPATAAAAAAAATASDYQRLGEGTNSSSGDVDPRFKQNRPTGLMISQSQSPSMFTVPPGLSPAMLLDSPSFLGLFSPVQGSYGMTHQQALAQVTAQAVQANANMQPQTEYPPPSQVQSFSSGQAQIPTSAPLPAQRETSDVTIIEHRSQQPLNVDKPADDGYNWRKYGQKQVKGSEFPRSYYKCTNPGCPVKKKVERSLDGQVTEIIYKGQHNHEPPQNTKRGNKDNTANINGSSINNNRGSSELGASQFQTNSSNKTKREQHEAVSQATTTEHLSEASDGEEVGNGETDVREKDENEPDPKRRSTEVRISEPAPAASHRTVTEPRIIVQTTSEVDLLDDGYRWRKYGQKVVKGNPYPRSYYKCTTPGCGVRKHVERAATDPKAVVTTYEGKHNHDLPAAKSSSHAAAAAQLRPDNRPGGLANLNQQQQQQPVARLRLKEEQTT

B1: Pchn0 (dsDNA)
DNA 1: GGAACTTGACCTTGACCTTAGGGCTGCAGGAATTCG
DNA 2: CGAATTCCTGCAGCCCTAAGGTCAAGGTCAAGTTCC
B1: binds [1]; binds [2].

B2: mPchn0 (dsDNA)
DNA 1: B1 DNA 1 with C10A, C16A
DNA 2: B1 DNA 2 with G21T, G27T
B2: no binding [2].
